Reference: paper PMC11748958

Target: human ERG potassium channel (human) (UniProt Q12809)
Chain of UniProt Q12809 (Q12809 whole entry): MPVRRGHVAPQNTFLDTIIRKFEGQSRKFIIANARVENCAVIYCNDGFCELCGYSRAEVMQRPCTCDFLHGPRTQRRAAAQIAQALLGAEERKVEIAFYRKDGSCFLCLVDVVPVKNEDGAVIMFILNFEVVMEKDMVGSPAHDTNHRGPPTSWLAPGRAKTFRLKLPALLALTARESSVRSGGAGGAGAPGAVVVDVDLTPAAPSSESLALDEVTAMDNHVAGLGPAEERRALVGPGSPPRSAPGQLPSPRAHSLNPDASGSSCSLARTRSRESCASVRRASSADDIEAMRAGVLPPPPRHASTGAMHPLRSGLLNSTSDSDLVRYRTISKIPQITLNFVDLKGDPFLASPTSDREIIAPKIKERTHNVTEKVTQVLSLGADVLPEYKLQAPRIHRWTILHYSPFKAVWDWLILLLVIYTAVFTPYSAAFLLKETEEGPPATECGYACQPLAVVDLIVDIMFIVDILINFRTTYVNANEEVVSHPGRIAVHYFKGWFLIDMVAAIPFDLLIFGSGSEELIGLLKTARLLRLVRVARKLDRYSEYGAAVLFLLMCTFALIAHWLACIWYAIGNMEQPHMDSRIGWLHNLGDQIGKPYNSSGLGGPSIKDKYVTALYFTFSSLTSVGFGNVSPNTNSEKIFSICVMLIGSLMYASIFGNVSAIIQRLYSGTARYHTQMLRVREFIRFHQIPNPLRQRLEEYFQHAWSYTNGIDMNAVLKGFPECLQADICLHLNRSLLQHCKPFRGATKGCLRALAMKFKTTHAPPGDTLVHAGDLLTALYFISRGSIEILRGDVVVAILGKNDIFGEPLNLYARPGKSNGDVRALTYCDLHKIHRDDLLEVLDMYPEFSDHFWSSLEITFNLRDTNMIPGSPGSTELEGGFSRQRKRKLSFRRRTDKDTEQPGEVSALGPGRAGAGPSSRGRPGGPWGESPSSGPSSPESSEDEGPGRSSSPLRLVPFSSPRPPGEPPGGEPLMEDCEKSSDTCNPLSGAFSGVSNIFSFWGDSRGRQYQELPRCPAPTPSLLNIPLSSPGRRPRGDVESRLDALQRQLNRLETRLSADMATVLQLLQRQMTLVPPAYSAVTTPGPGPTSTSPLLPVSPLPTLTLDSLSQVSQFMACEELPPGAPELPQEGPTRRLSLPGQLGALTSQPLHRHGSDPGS

B1: recombinant Phα1β (peptide)
chain: MACIPRGEICTDDCECCGCDNQCYCPPGSSLGIFKCSCAHANKYFCNRKKEKCKKA
  IC50 of inhibition of hERG channel activity, thallium flux (FLIPR Potassium Assay) in HEK293-hERG cells: > 900 pmol
  percent inhibition of hERG channel activity, thallium flux (FLIPR Potassium Assay) in HEK293-hERG cells, Phα1β 56-900 pM for 30 minutes; highest value at 900 pM: 13.6%
